From patent US20260265385A1 (ANAPTYSBIO, published 2026)
Residue numbers refer to the chain shown, from its start.

B1: APE15142 (antibody, V domains shown)
VH: EVQLVQSGAEVKKPGATVKISCKVSGFNFKYSLIHWVQQAPGKGLEWMGWIDNEAGETEYAPGFQDRVTITADTSTDTAYMELSSLRSEDTAVYYCARGGPWFLSYWGQGTTVTVSS
VL: EIVMTQSPATLSVSPGERATLSCRASQIISNNLHWYQQKPGQAPRLLIIYGLQSISGIPARFSGSRSGTEFTLTISSLQSEDFAVYYCQQSNNWPWTFGQGTKLEIKR
notes: M10-1275 series
B2: APE15138 (antibody, V domains shown)
VH: B1 VH with Y31L, I34M, N53S, A55N
VL: B1 VL
notes: M10-1275 series
B3: APE15140 (antibody, V domains shown)
VH: B1 VH with Y31E
VL: B1 VL
notes: M10-1275 series
B4: APE15145 (antibody, V domains shown)
VH: B1 VH with Y31L, I34M
VL: B1 VL
notes: M10-1275 series
B5: APE15144 (antibody, V domains shown)
VH: B1 VH with Y31L
VL: B1 VL
notes: M10-1275 series
B6: APE15167 (antibody, V domains shown)
VH: B1 VH with Y31E, I34M, N53V
VL: B1 VL
notes: M10-1275 series
B7: APE15173 (antibody, V domains shown)
VH: B1 VH
VL: B1 VL with Y87F, W94F
notes: M10-1275 series
B8: APE15136 (antibody, V domains shown)
VH: B1 VH with Y31E, I34M, N53S, A55N
VL: B1 VL
notes: M10-1275 series
B9: APE15139 (antibody, V domains shown)
VH: B1 VH with Y31E, N53V
VL: B1 VL
notes: M10-1275 series
B10: APE15135 (antibody, V domains shown)
VH: B1 VH with Y31D, I34M, A55N
VL: B1 VL
notes: M10-1275 series
B11: APE15141 (antibody, V domains shown)
VH: B1 VH with Y31E, I34M
VL: B1 VL
notes: M10-1275 series
B12: APE15171 (antibody, V domains shown)
VH: B1 VH
VL: B1 VL with Y87F, W94F, W96Y
notes: M10-1275 series
B13: APE15137 (antibody, V domains shown)
VH: B1 VH with I34M, N53S, A55N
VL: B1 VL
notes: M10-1275 series
B14: APE15172 (antibody, V domains shown)
VH: B1 VH
VL: B1 VL with Y87F, W96Y
notes: M10-1275 series
B15: APE15143 (antibody, V domains shown)
VH: B1 VH with I34M
VL: B1 VL
notes: M10-1275 series
B16: APE15276 (antibody, V domains shown)
VH: B1 VH with Y31E, G99S
VL: B1 VL with Y87F, W94F
notes: M10-1275 series
B17: APE15169 (antibody, V domains shown)
VH: B1 VH with Y31E
VL: B1 VL with Y87F, W96Y
notes: M10-1275 series
B18: APE15168 (antibody, V domains shown)
VH: B1 VH with Y31E
VL: B1 VL with Y87F, W94F, W96Y
notes: M10-1275 series
B19: APE15428 (antibody)
heavy: not shown
light: DIQMTQSPSSLSASVGDRVTITCKASQNVGTDVAWYQQKPGKAPKSLIYSASYRYSGVPSRFSGSGSGTDFTLTISSLQPEDFATYFCHQYESYPFTFGQGTKLEIKRTVAAPSVFIFPPSDEQLKSGTASVVCLLNNFYPREAKVQWKVDNALQSGNSQESVTEQDSKDSTYSLSSTLTLSKADYEKHKVYACEVTHQGLSSPVTKSFNRGEC
notes: M6-p1625 series
B20: APE15446 (antibody)
heavy: not shown
light: EIVMTQSPATLSVSPGERATLSCRASQIISNNLHWYQQKPGQAPRLLIIYGLQSISGIPARFSGSRSGTEFTLTISSLQSEDFAVYFCQQSNNFPWTFGQGTKLEIKRTVAAPSVFIFPPSDEQLKSGTASVVCLLNNFYPREAKVQWKVDNALQSGNSQESVTEQDSKDSTYSLSSTLTLSKADYEKHKVYACEVTHQGLSSPVTKSFNRGEC
notes: M10-1275 series
B21: APE15148 (antibody, V domains shown)
VH: QVQLVQSGAEVKKPGASVKVSCKASGYTFSRYWIQWVRQAPGQGLEWMGEILPGSGSINHNEKFQGRVTMTRDTSTSTVYMELSSLRSEDTAVYYCTRHYGSFDYWGQGTTVTVSS
VL: DIQMTQSPSSLSASVGDRVTITCKASQNVGTDVAWYQQKPGKAPKSLIYSASYRYSGVPSRFSGSGSGTDFTLTISSLQPEDFATYFCHQYESYPFTFGQGTKLEIKR
notes: M6-p1625 series

Key:
[1] = biological target: T1, recombinant human IL-2Rβ (extracellular domain, Ala1-Thr215) (human, UniProt P14784 27-240); assay: SPR, antibody captured on Protein A chip
T1 construct: extracellular domain; Analyte in SPR; Ala1-Thr215 is counted on the mature protein; also called human LL-2Rβ; Human IL-2RB
T1 sequence (looked up): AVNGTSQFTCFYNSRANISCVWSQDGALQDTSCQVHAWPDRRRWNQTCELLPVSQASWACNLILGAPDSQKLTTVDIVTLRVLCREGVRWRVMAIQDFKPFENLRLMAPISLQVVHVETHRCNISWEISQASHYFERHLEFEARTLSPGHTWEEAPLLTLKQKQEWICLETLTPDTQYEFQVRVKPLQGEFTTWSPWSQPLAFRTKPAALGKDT
Description: (§1) Surface plasmon resonance (SPR) was used to determine the binding affinities. The M6-1625 and M10-1275 antibodies were captured onto a Cytiva Protein A Chip for 60 seconds at 0.5 μg/mL for 60 seconds. The antibodies were exposed to recombinant human LL-2Rβ or cynomolgus LL-2Rβ (corresponding to residues Ala1-Thr215 of the extracellular domains excluding the signal peptide) at typical concentrations ranging from 0.4 nM to 11 nM with typical 300 second associations and 1200 second dissociations using a BiacoreS200 instrument. Sensorgrams were fit globally using a 1:1 binding model in the Biacore T200 Evaluation Software to calculate on- and off-rates and KD values.

[2] = biological target: T2, recombinant cynomolgus IL-2Rβ (extracellular domain, Ala1-Thr215) (cynomolgus, UniProt Q38J85 27-240); assay: SPR, antibody captured on Protein A chip
T2 construct: extracellular domain; Analyte in SPR; also called cynomolgus LL-2Rβ; Cyno IL-2RB
T2 sequence (looked up): T1 sequence (looked up) with Q7R, A66T, T74A, L83M, V92M, E127K, L158M
Description: as §1

[3] = biological target: T3, cynomolgus IL-2Rβ (CD122), full-length, on cells (cynomolgus, UniProt Q38J85 27-551); assay: flow cytometry on CHO-K1 cells expressing cynomolgus IL-2Rβ and IL-2Rγ (panel 'Cell Binding cyno IL-2Rbg CHO'); unit taken from the axis 'Antibody Concentration nM'
T3 construct: whole, on cells; Co-expressed with full-length cynomolgus IL-2Rγ on CHO-K1 cells; also called cynomolgus IL-2Rβγ; cyno IL-2βγ
T3 sequence (looked up): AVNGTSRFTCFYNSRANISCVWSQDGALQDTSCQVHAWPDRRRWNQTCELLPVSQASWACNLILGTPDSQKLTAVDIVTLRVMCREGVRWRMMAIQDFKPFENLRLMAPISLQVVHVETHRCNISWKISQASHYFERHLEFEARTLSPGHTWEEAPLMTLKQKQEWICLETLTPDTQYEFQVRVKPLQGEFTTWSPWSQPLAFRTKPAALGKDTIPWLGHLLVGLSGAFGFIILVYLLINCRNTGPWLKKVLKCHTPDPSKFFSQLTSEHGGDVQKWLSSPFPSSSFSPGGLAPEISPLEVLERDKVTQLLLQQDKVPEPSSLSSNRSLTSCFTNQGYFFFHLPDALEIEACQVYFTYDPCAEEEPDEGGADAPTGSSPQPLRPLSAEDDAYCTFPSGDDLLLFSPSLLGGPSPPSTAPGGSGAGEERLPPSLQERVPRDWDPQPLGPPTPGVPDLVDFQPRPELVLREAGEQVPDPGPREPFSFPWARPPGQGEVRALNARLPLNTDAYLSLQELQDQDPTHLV
Description: (§2) CHO-K1 cells stably expressing either full-length human or cyno IL-2Rβ and IL-2Rγ cultured in the log phase of growth were harvested with Accutase solution, resuspended in FACS buffer, and plated at 100,000 cells/well in a 96 well plate. The concentrations indicated in FIG. 5 of antibodies starting at 100 nM and diluted 1:3 were incubated with the cells for 45 minutes on a plate shaker at4° C. After washing, cells were incubated with goat anti-human kappa DyL650 secondary antibody for 20 minutes on a plate shaker at4° C. Cells were washed again and analyzed on a FACSArray flow cytometer. Data were analyzed using Novoexpress and GraphPad Prism software.

[4] = biological target: T4, human IL-2Rβ (CD122), full-length, on cells (human, UniProt P14784 27-551); assay: flow cytometry on CHO-K1 cells expressing human IL-2Rβ and IL-2Rγ (panel 'Cell Binding human IL-2Rbg CHO'); unit taken from the axis 'Antibody Concentration nM'
T4 construct: whole, on cells; also called human IL-2Rβγ; human IL-2βγ
T4 sequence (looked up): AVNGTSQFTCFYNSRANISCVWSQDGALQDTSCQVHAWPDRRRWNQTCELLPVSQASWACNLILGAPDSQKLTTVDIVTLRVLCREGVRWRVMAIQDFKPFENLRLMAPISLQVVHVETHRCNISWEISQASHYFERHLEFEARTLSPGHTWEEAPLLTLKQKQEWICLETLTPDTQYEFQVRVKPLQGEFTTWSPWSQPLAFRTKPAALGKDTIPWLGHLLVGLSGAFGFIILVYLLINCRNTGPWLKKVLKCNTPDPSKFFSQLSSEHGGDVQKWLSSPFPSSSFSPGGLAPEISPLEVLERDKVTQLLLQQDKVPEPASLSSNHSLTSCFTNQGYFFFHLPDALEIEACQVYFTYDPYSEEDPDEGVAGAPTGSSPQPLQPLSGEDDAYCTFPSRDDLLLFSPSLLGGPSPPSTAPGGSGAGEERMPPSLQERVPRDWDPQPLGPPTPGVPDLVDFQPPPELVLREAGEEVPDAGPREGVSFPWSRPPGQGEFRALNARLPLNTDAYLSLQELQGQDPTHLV
Description: as §2

| Binder | Kd [1] [pM] | Kd [2] [pM] | EC50 [3] [pM] | EC50 [4] [pM] |
| --- | --- | --- | --- | --- |
| B1 | 22.2 | 10.5 | 163 | 147 |
| B2 | 43.6 | 16.3 | – | – |
| B3 | 21.7 | 10.2 | 180 | 138 |
| B4 | 29.6 | 10.8 | – | – |
| B5 | 29.7 | 11.6 | – | – |
| B6 | 45 | 6.55 | – | – |
| B7 | 18.4 | 5.09 | – | – |
| B8 | 48.1 | 11.4 | – | – |
| B9 | 35.2 | 9.23 | – | – |
| B10 | 28.2 | 10.5 | – | – |
| B11 | 22 | 10.3 | – | – |
| B12 | 276 | 52.2 | – | – |
| B13 | 51.8 | 17.4 | – | – |
| B14 | 116 | 27.1 | – | – |
| B15 | 25.1 | 9.72 | – | – |
| B16 | 17.8 | 5.99 | – | – |
| B17 | 99.5 | 14.4 | 333 | 308 |
| B18 | 324 | 37.9 | – | – |
| B19 | 56.7 | 76.5 | – | – |
| B20 | 10.7 | 4.15 | – | – |
| B21 | 94.5 | 71.5 | 103 | 105 |
